Laboratory results: patent US20170114420, “[…] WITH BINDING AFFINITY TO NOROVIRUS” (North Carolina State University, published 2017)

Legend:
[1] = target: T1, Norovirus GII.2 (Snow Mountain virus) VLP, capsid protein VP1 (Snow Mountain virus (Norovirus GII.2), UniProt Q80RD6 Q80RD6:1-542); test: ELONA; ELASA, RT, 3 ug/ml VLP; T/N 18.1 at 1 uM (Table 5); conditions: chain copies: 180, label: 5' biotin
[2] = target: Norovirus GI.1 (Norwalk) VLP, capsid protein VP1 (Norwalk virus (Norovirus GI.1), UniProt Q83884 Q83884:1-530); test: ELONA; 1 uM aptamer, RT; <2 is negative; conditions: label: 5' biotin
[3] = target: T1, Norovirus GII.2 (Snow Mountain virus) …; test: ELONA; ELASA, RT, 3 ug/ml VLP; T/N 12.9 at 1 uM (Table 5); conditions: chain copies: 180, label: 5' biotin
[4] = target: T1, Norovirus GII.2 (Snow Mountain virus) …; test: ELONA; ELASA, RT, 3 ug/ml VLP; T/N 4.1 at 1 uM (Table 5); conditions: chain copies: 180, label: 5' biotin
[5] = target: T1, Norovirus GII.2 (Snow Mountain virus) …; test: ELONA; ELASA, RT, 3 ug/ml VLP; T/N 12.4 at 1 uM (Table 5); conditions: chain copies: 180, label: 5' biotin
[6] = target: T1, Norovirus GII.2 (Snow Mountain virus) …; test: ELONA; conditions: chain copies: 180

B1: SMV-21 (ssDNA)
DNA: AGTATACGTATTACCTGCAGCCCATGTTTTGTAGGTGTAATAGGTCATGTTAGGGTTTCTGCGATATCTCGGAGATCTTGC
Kd [1]: ~101 nM

B2: SMV-19 (ssDNA)
DNA: AGTATACGTATTACCTGCAGCCACCAGTGTGTTGAGGTTTGAGCACACTGATAGAGTGTCACGATATCTCGGAGATCTTGC
binding result [2]: binds
Kd [3]: ~191 nM

B3: SMV-26 (ssDNA)
DNA: AGTATACGTATTACCTGCAGCTGACCGAGTGTCTGGTCATTTTCGATGTCTGTTGTTAGGCCGATATCTCGGAGATCTTGC
Kd [4]: ~281 nM

B4: SMV-25 (ssDNA)
DNA: AGTATACGTATTACCTGCAGCCATCTGTGTGAAGACTATATGGCGCTCACATATTTCTTTCCGATATCTCGGAGATCTTGC
Kd [5]: ~232 nM

B5: M6-2 (ssDNA)
DNA: AGTATACGTATTACCTGCAGCTGGGAAGAGGTCCGGTAAATGCAGGGTCAGCCCGGAGAGCGATATCTCGGAGATCTTGC
binding signal [6]: 12 VLP/no VLP ratio

B6: M1 (ssDNA)
DNA: AGTATACGTATTACCTGCAGCTGTTTATGGGGATAAACGTATCTAATTCGTGTACTAATCACGATATCTCGGAGATCTTGC
binding signal [6]: 10.7 VLP/no VLP ratio
